Patent publication US9228015B2, “Nogo receptor antagonists and methods of increasing neurite outgrowth” (Biogen Idec MA Inc., priority 2006, dated 2016)
Entries after “also recorded” stand apart in the source; their conditions may differ.

Tests used:
[1] = target: T1, Nogo66 binding to sNogoR344-Fc (rat Nogo receptor-1 residues 26-344) (Rattus norvegicus, UniProt Q99M75, A303T/C287S/C43R/E284G/T53A); test: SPA bead assay: 125I-Nogo66 binding to immobilized sNogoR344-Fc, inhibition by mAb; settings: 125I-Nogo66 binding to sNogoR344-Fc
T1 construct: amino acid residues 26-344 of rat Nogo receptor-1; made in house; CHO (DG44) is described only for sNogoR310-Fc
T1 sequence (Q99M75 26-344 C43R/T53A/E284G/C287S/A303T): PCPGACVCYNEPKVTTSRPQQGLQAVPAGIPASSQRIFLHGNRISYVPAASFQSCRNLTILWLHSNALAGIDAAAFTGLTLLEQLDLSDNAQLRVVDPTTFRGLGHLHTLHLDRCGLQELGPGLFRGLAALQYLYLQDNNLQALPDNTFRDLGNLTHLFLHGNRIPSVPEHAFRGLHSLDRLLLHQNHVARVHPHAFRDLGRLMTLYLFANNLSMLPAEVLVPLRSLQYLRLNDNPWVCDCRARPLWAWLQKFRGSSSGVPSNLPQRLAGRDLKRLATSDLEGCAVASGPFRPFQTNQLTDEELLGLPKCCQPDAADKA
Method: 0.5 μg of a soluble Nogo receptor-1 fusion protein comprising amino acid residues 26-344 of rat Nogo receptor-1 and the hinge and Fc region of the rat IgG1 molecule (sNogoR344-Fc) produced as described below was immobilized on […] of protein-A- or wheatgerm agglutinin-conjugated SPA beads (Amersham Pharmacia Biotech) for 2 hours at 25° C. SPA beads coupled with Fc-sNogoR-1, anti-Nogo receptor-1 mAb and 1 μl ^125I-Nogo66 (Amersham, 2000 Ci/mmol, 1 nM) in […] of the HEPES-buffered incubation medium (10 mM HEPES, pH 7.4, 0.1% bovine serum albumin, 0.1% ovalbumin, 2 mM MgCl2, 2 mM CaCl2 and protease inhibitors) was added to each sample well. After 16 hours, radioactivity was measured in quadruplicate samples using a TopCount® (Packard). IC50 values were calculated from a curve-fit analysis (FIG. 3) (PRISM, GraphPad Software, NJ). In some experiments, we also used AP-ligand conjugates (e.g. AP-Nogo66) and detected binding by monitoring alkaline phosphatase activity. We also assayed the ability of the mAbs to block binding of the ligands MAG-Fc and AP-OM-gp to Nogo receptor-1.

rat NgR1 = target: T2, rat NgR1 (Rattus norvegicus, UniProt Q99M75); test: Antibody binding specificity: rat Nogo receptor-1
T2 sequence (Q99M75 27-310): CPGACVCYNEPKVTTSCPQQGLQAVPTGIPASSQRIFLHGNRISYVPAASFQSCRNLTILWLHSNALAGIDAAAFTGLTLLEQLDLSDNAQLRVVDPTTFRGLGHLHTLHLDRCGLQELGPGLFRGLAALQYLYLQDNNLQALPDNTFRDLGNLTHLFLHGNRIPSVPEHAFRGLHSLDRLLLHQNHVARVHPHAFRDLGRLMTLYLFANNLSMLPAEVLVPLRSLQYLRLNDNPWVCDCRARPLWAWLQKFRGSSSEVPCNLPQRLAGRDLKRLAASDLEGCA

human NgR1 = target: T3, human NgR1 (Homo sapiens, UniProt Q9BZR6); test: Antibody binding specificity: human Nogo receptor-1
T3 sequence (Q9BZR6 27-447): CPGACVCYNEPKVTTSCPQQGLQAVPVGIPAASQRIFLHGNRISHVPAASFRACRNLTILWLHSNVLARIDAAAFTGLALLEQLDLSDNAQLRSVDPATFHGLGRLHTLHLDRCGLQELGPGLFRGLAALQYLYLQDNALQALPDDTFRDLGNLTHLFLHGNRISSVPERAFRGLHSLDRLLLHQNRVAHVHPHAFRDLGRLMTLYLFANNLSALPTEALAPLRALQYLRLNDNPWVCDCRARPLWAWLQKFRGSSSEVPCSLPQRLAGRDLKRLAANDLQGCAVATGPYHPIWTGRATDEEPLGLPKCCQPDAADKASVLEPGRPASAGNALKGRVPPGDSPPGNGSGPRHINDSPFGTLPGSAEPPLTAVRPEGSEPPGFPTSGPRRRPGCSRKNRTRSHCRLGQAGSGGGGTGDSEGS

NgR3 = target: T4, NgR3 (Homo sapiens, UniProt Q86UN2); test: Antibody binding specificity: NgR3
T4 sequence (Q86UN2 with tags, fused parts or gaps V54E/V59I/G67T/L68F/P71Q/Y90F/H92A/S94N/V144I/P190Q/T192I/R221H/S234T/E239D/G245V/P256A/Q271R/V283A/S284T/G286E/H289Q/A298V/A308V/T321S/S331P/P332S/P335A/T336S/S338D/P345H/R346P/H349S/INS350SGYK/P352A/N358S/P359H/A368V/G369S/A370S/Q373E/A374L/P375T/P378Q): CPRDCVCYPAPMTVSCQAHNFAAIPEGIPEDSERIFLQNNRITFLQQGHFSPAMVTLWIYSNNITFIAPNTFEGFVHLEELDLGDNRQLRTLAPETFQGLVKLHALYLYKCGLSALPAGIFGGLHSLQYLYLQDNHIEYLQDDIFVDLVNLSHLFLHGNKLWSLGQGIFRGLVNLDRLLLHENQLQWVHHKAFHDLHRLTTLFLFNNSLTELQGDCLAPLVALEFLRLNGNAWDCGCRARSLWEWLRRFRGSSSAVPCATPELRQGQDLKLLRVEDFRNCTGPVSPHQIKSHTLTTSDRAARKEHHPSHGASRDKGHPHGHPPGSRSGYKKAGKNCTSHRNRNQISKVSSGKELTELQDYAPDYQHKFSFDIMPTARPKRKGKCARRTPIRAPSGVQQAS

IC50 [1]: 400 nM | binding to rat Nogo receptor-1 (rat NgR1): bound; also recorded: binds well | binding to human Nogo receptor-1 (human NgR1): bound; also recorded: binds well | binding to NgR3 (NgR3): does not bind well
B1: 7E11: murine monoclonal anti-Nogo receptor-1 antibody, immunogen rat Nogo receptor-1 residues 110-125, IgG1 kappa, ATCC PTA-4587 (antibody, V domains shown)
VH: VQLQESGAELVMPGASVKMSCKASGYTFTDYWMHWVKQRPGQGLEWIGAIDPSDSYSSYNQNFKGKATLTVDGSSSTAYMQLSSLTSEDSAVYYCARRITEAGAWFAYWGQGTTVT
VL: MKLPVRLLVLMFWIPASSSDVVMTQTPLSLPVSLGDQASISCRSSQSLVHSNGNTYLHWYLQKPGQSPKLLIYKVSNRFSGVPDRFSGSGSGTDFTLKISRVDAEDLGVYFCSQSTHVPFTFGGGTKLEIKRADAAPTVSISHH
modifications: 7E11 heavy chain; 7E11 light chain
notes: murine monoclonal anti-Nogo receptor-1 antibody, immunogen rat Nogo receptor-1 residues 110-125, IgG1 kappa, ATCC PTA-4587
